Where a chain is given by its changes, count along the chain named.
B1: antibody 510 (antibody, V domains shown)
VH: QVQLQESGPGLVKPSQTLSLTCTVSGGSISSGSYYWSWIRQPAGKGLEWIGRIYTSGSTNYNPSLKSRVTISVDTSKNQFSLKLSSVTAADTAVYYCAREGQWLYRFDYWGQGTLVTVSS
VL: QSALTQPASVSGSPGQSITISCTGTSSDVGNYDLVSWYQQHPGKAPKLVIYGVTKRPSGVSNRFSGSKSGNTASLTISGLQAEDEADYYCCSYATGDTSVFGTGTKVTVL
B2: antibody 299 (antibody, V domains shown)
VH: not shown
VL: EIVLTQSPATLSLSPGERATLSCRASQSVSSYLAWYQQKPGQAPRLLIYDASNRATGIPARFSGSGSGTDFTLTISSLEPEDFAVYYCQQRSNWPWTFGQGTKVEIK
B3: antibody 533 (antibody, V domains shown)
VH: GVQLVESGGVVVQPGGSLRLSCAASGFSFDDYTMHWVRQAPGKGLEWVSLVSWDGGTTYYTDSVKGRFTISRDNSKNSLYLQMNSLRTEDTALYFCAKDSGRIVPAATFDYWGQGTLVTVSS
VL: DIQMTQSSSSLSASVGDRVTITCRASQDISNYLAWFQQKPGKAPKSLIYAASSLQSGVPSKFSGSGSGTDFTLTISSLQPEDFATYYCQQYYTYPLTFGGGTKVEIK
B4: antibody 316 (antibody, V domains shown)
VH: QVHLVESGGGVVQPGRSLRLSCAASGFTLTAYAMHWVRQAPGKRLEWVALISYDGSVKKYADSVKGRITVSGDTSTNTLHLQMNSLRADDTAVYYCVRGGVSGPNSFDLWGQGTMVTVSS
VL: DVVMTQSPLSLPVTLGQPASMSCRSSQSLEYSDGNTYVNWFHQRPGQSPRRLIYKVSYRDSGVPDRFSGSGSGTDFTLQISRVEAEDVGIYYCMQGTHWPVTFGQGTKVEIK
B5: antibody 315 (antibody, V domains shown)
VH: QVQLVQSGSELKKPGASVKLSCQASGYSFTNHAMNWVRQAPGQGLEWMGWINTNTGNPTYAQGFTGRFVFSLDTSVSTTYLHISSLKAEDTAVYYCARASARPGVATNLDFWGQGTLVVVSS
VL: DIQMTQSPSSLSASVGDRVTITCRASQNIDNYLNWYQQKPGKAPKLLIYAASRLHSGVPSRFSGSGSGTDFTLIISSLQPEDLATYYCQQSYSNPLTFGPGTKVDIR
B6: antibody 498 (antibody, V domains shown)
VH: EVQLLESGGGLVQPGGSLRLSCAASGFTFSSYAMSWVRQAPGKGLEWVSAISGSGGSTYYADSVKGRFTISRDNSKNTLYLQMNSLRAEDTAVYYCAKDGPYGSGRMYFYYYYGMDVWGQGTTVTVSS
VL: QSALTQPASVSGSPGQSITISCTGTSSDVGSYNLVSWYQQHPGKAPKLMIYEGSKRPSGVSNRFSGSKSGNTASLTISGLQAEDEADYYCCSYAGSSTSFVVFGGGTKLTVL
B7: antibody 505 (antibody, V domains shown)
VH: EVQLVESGGGLVKPGGSLRLSCAASGFTFSSYSMNWVRQAPGKGLEWVSSISSSSSYIYYADSVKGRITISRDNAKNSLYLQMNSLRAEDTAVYYCAREYPNFRAEWLLSPYGMDVWGQGTTVTVSS
VL: B6 VL with G53V, F100V, V101K, G105T, L109V
B8: antibody 317 (antibody, V domains shown)
VH: QVQLVQSGAEVKKPGASVKVSCKVSGYTLTELSMHWVRQAPGKGLEWMGGFDPEDGETIYAQKFQGRVTMTEDTSTDTAYMELSSLRSEDTAVYYCASSPAAAGTSQYYYYYGMDVWGQGTTVTVSS
VL: not shown
B9: antibody 543 (antibody, V domains shown)
VH: EVQLVESGGGLVQPGRSLRLSCAASGFTFHDYAMHWVRQAPGKGLEWVSGISWNSGSIGYADSVKGRFTISRDNAKNSLYLQMNSLRAEDTALYYCAKDTFGSSSWYRGDSYYYYGMDVWGQGTTVTVSS
VL: QSALTQPASVSGSPGQSITISCTGTSSDVGGYNYVSWYQQHPGKAPKLMIYEVSNRPSGVSNRFSGSKSGNTASLTISGLQAEDEADYYCSSYTSSSTQRYVVFGGGTKLTVL
B10: antibody 301 (antibody, V domains shown)
VH: QVQLVQSGAEVKKPGASVKVSCKVSGYTLTELSMHWVRQAPGKGLEWMGGFDPEDGETIYAQKFQGRVTMTEDTSTDTAYMELSSLRSEDTAVYYCATAFCGGDCYPPDALDIWGQGTMVTVSS
VL: DIQMTQSPSSVSASVGDRVTITCRASQGISSWLAWYQQKPGKAPKLLIYAASSLQSGVPSRFSGSGSGTDFTLTISSLQPEDFATYYCQQANSFPLTFGGGTKVEIK
B11: antibody 497 (antibody, V domains shown)
VH: QVQLQESGPGLVKPSQTLSLTCTVSGGSINSFGYYWSWIRQHPGKGLEWIGYIYYSGSTDYNPSLNSRVTISLDTSKNQFLLKLTSVTAADTAVYYCAKLTDYYDSSGYSFDYWGQGTLVTVSS
VL: B10 VL with G28D, S31R, S65R, D70E, F71L, Y87F, N92Y, L96F
B12: antibody 514 (antibody, V domains shown)
VH: EVQLVQSGAEVKKPGATVKISCKVSGYTFTDYYMHWVQQAPGKGLEWMGLVDPEDGETIYAEKFQGRVTITADTSTDTAYMELSSLRSEDTAVYYCATDCKYDILTGHYSAGYYYYGMDVWGQGTTVTVSS
VL: B3 VL with S8P, D28G, Y92N, T93S, L96F
B13: antibody 496 (antibody, V domains shown)
VH: QVQLVQSGAEVKKPGASVKVSCKASGYTFTDYYIHWVRQAPGQGLEWMGWINPNSGGTNYAQKFQGRLTMTRDTSISTAYMELSRLRSDDTAVYYCARVYSMFREFIINPYYYYYGLDVWGQGTTVTVSS
VL: QSALTQPASVSGSPRQSITISCTGTSSDVGSYNLVSWYQQHPGKAPKLMIYEGSKRPSGVSNRFSGSKSGNTASLAISGLQAEDEANYYCCSYAGSSTLVFGGGTKLTVL
B14: antibody 306 (antibody, V domains shown)
VH: QVQLVESGGGVVQPGRSLRLSCAASGFTFSSYGMHWVRQAPGKGLEWVAVIWYDGSNKYYADSVKGRFTISRDNSKNTLYLQMNSLRAEDTAVYYCAKDGGYCGGDCYSDGVDYWGQGTLVTVSS
VL: not shown
B15: antibody 294 (antibody, V domains shown)
VH: EVQLVESGGGLVQPGGSLRLSCAASGFTVSSNYMNWVRQAPGKGLEWVSVIYSGGSTYYADSVKGRFTISRDNSKNTLYLQMNSLRAEDTAVYYCARDLGPSGMDVWGQGTTVTVSS
VL: DIQMTQSPSSVSASVGDRVTITCRASQGISSWLAWYQQKPGKAPKLLIYAASSLQSGVPSRFSGSGSGTDFTLTISSLQPEDFATYYCQQANSFPLFGGGTKVEIK
B16: antibody 537 (antibody, V domains shown)
VH: QVQLQQWGAGLLKPSETLSLTCAVYGGSFSGYYWSWIRQPPGKGLEWIGEINHSGSTNYNPSLKSRVTISVDTSKNQFSLKLSSVTAADTAVYYCARGLYYDMGGGFDYWGQGTLVTVSS
VL: not shown
B17: antibody 295 (antibody, V domains shown)
VH: QVQLQESGPGLVKPSQTLSLTCTVSGGSISSSDYYWSWIRQPPGKGLEWIGYIYYSGSTYYNPSLKSRVTISVDTSKNQFSLKLSSVTAADTAVYYCARVVGYCSSTSCYVDYWGQGTLVTVSS
VL: EIVLTQSPATLSLSPGERVTLSCRASQSVSSYLAWYQQKPGQAPRLLIYDASNRATGIPARFSGSGSGTDFTLTISSLEPEDFAVYYCQQRSNWPPGLTFGGGTKVEIK
B18: antibody 523 (antibody, V domains shown)
VH: EVQLVESGGVSVQPGGSLRLSCAASGFSFNTYDMHWVRQGTGKGLEWVSGIGTAGDTYYSDSVKGRCTISRDNAKNSLHLLVKSVRAADTAVYYCARGVGGIIDYWGQGTLVTVSS
VL: NFVLSQPHSVSESPGKTVTISCTGNSGSIATKYVQWFQQRPGSAPTTVIYEDNQRPSGVPDRFSGSSDSSSNSASLTISGLKTEDEAHYYCQSYHNRRWVFGGGTKLTVL
B19: antibody 522 (antibody, V domains shown)
VH: EVQLVESGGGLVQPGGSLRLSCAASGFNFSSYSMNWVRQAPGKGLEWVSYISSSSSTIYYADSVKGRFTISRDNAKNSLYLQMNSLRDEDTAVYYCARGPEWDIVVVQAENWFDPWGQGTLVTVSS
VL: SYELTQPPSVSVSPGQTARITCSGDALPKQYVYWYQQKPGQAPVLVIYKDSERPSGIPERFSGSSSGTTVTLTISGVQAEDEADYYCQSADSSGTYRGVFGGGTKLTVL
B20: antibody 541 (antibody, V domains shown)
VH: QVQLVQSGAEVKKPGASVKVSCKASGYTFTSYYVHWVRQAPGQSLEWMGVISPSTGSTTYAQNFQGRVTMTRDTSTTTVYMELSSLRSEDTAVYYCARDDYYDSTRYFDLWGRGTLVTVSS
VL: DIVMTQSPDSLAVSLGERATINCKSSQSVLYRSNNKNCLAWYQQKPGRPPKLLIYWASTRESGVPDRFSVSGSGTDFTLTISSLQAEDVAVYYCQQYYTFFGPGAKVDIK
B21: antibody 487 (antibody, V domains shown)
VH: QVQLQESGPGLVKPSQTLSLTCTVSGGSISSGGYYWSWIRQHPGKGLEWIGYIYYSGSTYYNPSLKSRVTISVDTSKNQFSLKLSSVTAADTAVYYCARGPLDFWSGYFRLRYFDCWGQGTLVTVSS
VL: QSALTQPASVSGSPGQSITISCTGTSSDVGGYNYVSWYQQHPGKAPKLMIYDVTNRPSGVSNRFSGSKSGNTASLTISGLQAEDEADYYCSSYTSSSTCVFGTGTKVTVL
B22: antibody 507 (antibody, V domains shown)
VH: QVQLQESGPGLVKPSGTLSLTCAVSGGSISSSNWWSWVRQPPGKGLEWIGEIYHSGNTNYNPSLKSRVTISVDKSKNQFSLKLSSVTAADTAVYYCARREWLRLFDYWGQGTLVTVSS
VL: B13 VL with R15G, G53V, A76T, N87D, L99Y, G103T, L107V
B23: antibody 516 (antibody, V domains shown)
VH: QVELQQWGAGLLKPSETLSLTCAVYGGSFSGYYWSWIRQPPGKGLEWIGEINHSGSTNYNPSLKSRVTISIDTSKNQFSLKLSSVTAADTAVYYCARGTTVTTFFAPHWYFDLWGRGTLVTVSS
VL: QSALTQPASVSGSPGQSITISCTGTSSDVGGYNYVSWYQQHPGKAPKLMIYDVSNRPSGVSNRFSGSKSGNTASLTISGLQAEDEADYYCSSYTSSSTPYVFGTGTKVTVL

Assays:
[1] = molecular target: SARS-CoV spike protein (full-length trimeric, on beads) (SARS-CoV, UniProt P59594 14-1190)
[2] = molecular target: full-length trimeric SARS-CoV spike protein (SARS-CoV, UniProt P59594 14-1190)
[3] = molecular target: SARS-CoV-2 full length spike protein (wild type) (SARS-CoV-2, UniProt P0DTC2 14-1208)

| Binder | bead binding signal, fold over isotype control [1] | median fluorescence intensity, fold over isotype control [2] | also measured |
| --- | --- | --- | --- |
| B1 | 1.03 fold over isotype | – | – |
| B2 | – | 1.13 fold over isotype | – |
| B3 | 1.23 fold over isotype | – | – |
| B4 | – | – | median fluorescence intensity fold over isotype [3]: 442 fold over isotype control |
| B5 | – | 1.07 fold over isotype | – |
| B6 | 1.31 fold over isotype | – | – |
| B7 | 1.04 fold over isotype | – | – |
| B8 | – | 1.14 fold over isotype | – |
| B9 | 1.03 fold over isotype | – | – |
| B10 | – | 1.45 fold over isotype | – |
| B11 | 1.23 fold over isotype | – | – |
| B12 | 1.15 fold over isotype | – | – |
| B13 | 1.15 fold over isotype | – | – |
| B14 | – | 1.39 fold over isotype | – |
| B15 | – | 1.07 fold over isotype | – |
| B16 | 1.04 fold over isotype | – | – |
| B17 | – | 1.24 fold over isotype | – |
| B18 | 1.11 fold over isotype | – | – |
| B19 | 1.21 fold over isotype | – | – |
| B20 | 1.2 fold over isotype | – | – |
| B21 | 7.25 fold over isotype | – | – |
| B22 | 1.07 fold over isotype | – | – |
| B23 | 1.03 fold over isotype | – | – |

Reference: US20210292393A1 (published 2021)
